# Measurements published in patent US20240116985A1 (published 2024).
# Starred links: 1 amine or outer side, 2 acyl side, 3 side chain; linkers in the order of their positions; H or OH if unused. Positions of bridges follow the written chain, without caps; N, C: chain ends. Non-standard residues stand in square brackets, D forms with d. Primed or numbered codes have the meaning given here. PyrS2(3) = (S)-3-amino-1-((pent-4-en-1-yloxy)carbonyl)pyrrolidine-3-carboxylic acid, stapling residue, C=CCCCOC(=O)N1CC[C@@](N[*:1])(C(=O)[*:2])C1; PyrS2″ = (S)-3-amino-1-((pent-4-en-1-yloxy)carbonyl)pyrrolidine-3-carboxylic acid (stapling residue), C=CCCCOC(=O)N1CC[C@@](N[*:1])(C(=O)[*:2])C1; B5(4) = 2,2-bis(4-pentenyl)glycine = 2-amino-2-(pent-4-en-1-yl)hept-6-enoic acid (stitching residue), C=CCCCC(CCCC=C)(N[*:1])C(=O)[*:2]; TfeGA = (S)-2-amino-3-((carboxymethyl)(2,2,2-trifluoroethyl)amino)propanoic acid, O=C([C@H](CN(CC(=O)[*:3])CC(F)(F)F)N[*:1])[*:2]; PyrS2 = (S)-3-amino-1-((pent-4-en-1-yloxy)carbonyl)pyrrolidine-3-carboxylic acid, C=CCCCOC(=O)N1CC[C@@](N[*:1])(C(=O)[*:2])C1; B5(3) = 2,2-bis(4-pentenyl)glycine (stitching residue), C=CCCCC(CCCC=C)(N[*:1])C(=O)[*:2]; B5″ = 2,2-bis(4-pentenyl)glycine, stitching residue, C=CCCCC(CCCC=C)(N[*:1])C(=O)[*:2]; Trp(1-Me) = Cn1cc(C[C@H](N)C(=O)O)c2ccccc21; Phe(2-Cl) = N[C@@H](Cc1ccccc1Cl)C(=O)O; Bta = N[C@@H](Cc1csc2ccccc12)C(=O)O; Lys(iPr) = CC(C)NCCCC[C@H](N)C(=O)O; αAllylPro = C=CC[C@@]1(C(=O)O)CCCN1; tBuAla = CC(C)(C)C[C@H](N)C(=O)O; 3Thi = N[C@@H](Cc1ccsc1)C(=O)O; hSer = N[C@@H](CCO)C(=O)O
# T1: full-length beta-Catenin (Uniprot ID P35222) (Homo sapiens (Human), UniProt P35222 2-781)
# T1 construct: also called bCat; B-Catenin
# T1 sequence: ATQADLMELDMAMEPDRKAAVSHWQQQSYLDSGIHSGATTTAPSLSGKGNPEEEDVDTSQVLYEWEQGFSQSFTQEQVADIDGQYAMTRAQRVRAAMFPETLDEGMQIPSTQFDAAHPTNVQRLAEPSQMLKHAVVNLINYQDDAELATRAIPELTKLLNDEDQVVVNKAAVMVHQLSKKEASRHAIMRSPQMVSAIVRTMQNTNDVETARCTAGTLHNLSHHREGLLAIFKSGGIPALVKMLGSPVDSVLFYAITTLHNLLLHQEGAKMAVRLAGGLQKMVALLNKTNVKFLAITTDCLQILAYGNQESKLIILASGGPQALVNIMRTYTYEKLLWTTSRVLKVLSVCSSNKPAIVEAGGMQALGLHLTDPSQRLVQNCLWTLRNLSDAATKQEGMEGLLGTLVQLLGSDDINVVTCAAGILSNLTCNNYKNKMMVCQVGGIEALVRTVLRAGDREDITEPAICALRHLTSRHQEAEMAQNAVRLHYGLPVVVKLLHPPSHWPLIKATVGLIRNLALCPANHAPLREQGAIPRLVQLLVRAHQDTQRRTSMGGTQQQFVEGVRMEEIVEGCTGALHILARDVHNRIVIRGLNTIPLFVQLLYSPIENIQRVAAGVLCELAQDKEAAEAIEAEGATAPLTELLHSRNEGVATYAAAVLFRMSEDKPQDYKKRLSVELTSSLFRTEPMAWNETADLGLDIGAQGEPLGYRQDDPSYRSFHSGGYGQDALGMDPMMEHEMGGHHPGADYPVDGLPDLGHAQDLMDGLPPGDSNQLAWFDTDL
# T2: beta-catenin in TCF/LEF luciferase reporter cells (Homo sapiens (Human), UniProt P35222 1-781)
# T2 sequence: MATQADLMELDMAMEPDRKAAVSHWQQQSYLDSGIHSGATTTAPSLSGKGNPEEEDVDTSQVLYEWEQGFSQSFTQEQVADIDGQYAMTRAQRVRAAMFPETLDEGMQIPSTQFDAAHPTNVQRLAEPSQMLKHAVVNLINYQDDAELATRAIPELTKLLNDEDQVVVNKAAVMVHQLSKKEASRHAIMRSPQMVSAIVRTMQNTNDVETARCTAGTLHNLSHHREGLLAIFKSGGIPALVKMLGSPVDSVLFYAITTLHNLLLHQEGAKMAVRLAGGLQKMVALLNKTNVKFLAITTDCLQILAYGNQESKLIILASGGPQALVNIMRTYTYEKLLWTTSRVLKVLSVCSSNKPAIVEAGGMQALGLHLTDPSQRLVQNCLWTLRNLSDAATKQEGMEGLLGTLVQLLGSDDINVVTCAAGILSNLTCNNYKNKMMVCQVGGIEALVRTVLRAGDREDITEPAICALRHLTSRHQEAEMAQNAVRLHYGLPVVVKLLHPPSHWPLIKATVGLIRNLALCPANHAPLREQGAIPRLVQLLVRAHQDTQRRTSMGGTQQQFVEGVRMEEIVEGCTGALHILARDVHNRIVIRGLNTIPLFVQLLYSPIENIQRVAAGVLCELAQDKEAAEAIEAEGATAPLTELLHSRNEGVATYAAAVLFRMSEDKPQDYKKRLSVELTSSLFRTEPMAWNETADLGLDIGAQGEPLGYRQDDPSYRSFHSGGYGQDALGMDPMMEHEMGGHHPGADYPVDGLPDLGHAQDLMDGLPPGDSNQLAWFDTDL
# Target: T1, full-length beta-Catenin (Uniprot ID …)
# Test: fluorescence polarization competition; full-length beta-catenin, 5FAM-TCF4(10-53) probe as competitor
# Procedure: The plate was incubated protected from light for 60 minutes at 20° C. prior to read. Reads were performed on a CLARIOstar plate reader (BMG Labtech) in duplicate, and data were fitted to a 1:1 binding model with hill slope using an in-house script. All provided concentrations are final concentrations.
row,Binder,IC50
1,"Ac-[αAllylPro]N[tBuAla][B5(4)]DT[Lys(iPr)]AFL[PyrS2″]F[Trp(1-Me)]Q-NH2 (staple 1-4, 4-11) [I-1589]",10 µM
2,"Ac-[αAllylPro]NF[B5(4)]DT[Lys(iPr)]AFL[PyrS2″]F[Bta]Q-NH2 (staple 1-4, 4-11) [I-1580]",1.43 µM
3,"Ac-[αAllylPro]NW[B5(4)]DT[Lys(iPr)]AFL[PyrS2″]F[Bta]Q-NH2 (staple 1-4, 4-11) [I-1581]",10 µM

# The next lines start with the values.
row,IC50,Binder
1,7.52 µM,"Ac-[αAllylPro]N[tBuAla][B5(4)]DT[Lys(iPr)]AFL[PyrS2]YWQ-NH2 (staple 1-4, 4-11) [I-1590]"
2,10 µM,"Ac-[αAllylPro]N[tBuAla][B5(4)]DT[Lys(iPr)]AFL[PyrS2″]FYQ-NH2 (staple 1-4, 4-11) [I-1585]"
3,3.42 µM,"Ac-[αAllylPro]NS[B5(4)]DT[Lys(iPr)]AFL[PyrS2″]F[Bta]Q-NH2 (staple 1-4, 4-11) [I-1583]"
4,3.11 µM,"Ac-[αAllylPro]N[Lys(iPr)][B5(4)]DT[Lys(iPr)]AFL[PyrS2]F[Bta]Q-NH2 (staple 1-4, 4-11) [I-1591]"
5,2.44 µM,"Ac-[αAllylPro]NQ[B5(4)]DT[Lys(iPr)]AFL[PyrS2″]F[Bta]Q-NH2 (staple 1-4, 4-11) [I-1584]"
6,1.22 µM,"Ac-[αAllylPro]NL[B5(4)]DT[Lys(iPr)]AFL[PyrS2″]F[Bta]Q-NH2 (staple 1-4, 4-11) [I-1582]"

# Target: T2, beta-catenin in TCF/LEF luciferase …
# Test: cell-based or functional assay
"TCF Reporter Assay Abs IC50 (uM), peptide + ST-Protein","TCF Reporter Assay Abs IC50 (uM), peptide only",Binder
0.2 µM,5 µM,"Ac-[αAllylPro]D[tBuAla][B5(3)]D[TfeGA]AAFT[PyrS2″][Phe(2-Cl)][Bta]Q-NH2 (staple 1-4, 4-11) [I-922]"
0.2 µM,5 µM,"Ac-[αAllylPro]D[tBuAla][B5(3)]D[TfeGA]AAF[hSer][PyrS2″][Phe(2-Cl)][Bta][hSer]-NH2 (staple 1-4, 4-11) [I-993]"
0.2 µM,5 µM,"Ac-[αAllylPro]D[tBuAla][B5(3)]D[TfeGA]AAFL[PyrS2][3Thi][Bta]Q-NH2 (staple 1-4, 4-11) [I-849]"
0.3 µM,7 µM,"Ac-[αAllylPro]D[tBuAla][B5″]D[TfeGA]AAFN[PyrS2(3)][3Thi][Bta]Q-NH2 (staple 1-4, 4-11) [I-762]"
